Among the targets are phosphorylated Nephrin (UniProt O60500); N-WASP (UniProt O00401); Nck (UniProt P16333); His6-sumo-kindlin (UniProt Q96AC1).
Assay [1] addresses Focal adhesion kinase (UniProt Q05397).
For assay [2] the target is unchanged. The source holds these as a separate data set.

His6-sumo-kindlin (from UniProt Q96AC1 1-680) (natural protein), sequence (Q96AC1 whole entry): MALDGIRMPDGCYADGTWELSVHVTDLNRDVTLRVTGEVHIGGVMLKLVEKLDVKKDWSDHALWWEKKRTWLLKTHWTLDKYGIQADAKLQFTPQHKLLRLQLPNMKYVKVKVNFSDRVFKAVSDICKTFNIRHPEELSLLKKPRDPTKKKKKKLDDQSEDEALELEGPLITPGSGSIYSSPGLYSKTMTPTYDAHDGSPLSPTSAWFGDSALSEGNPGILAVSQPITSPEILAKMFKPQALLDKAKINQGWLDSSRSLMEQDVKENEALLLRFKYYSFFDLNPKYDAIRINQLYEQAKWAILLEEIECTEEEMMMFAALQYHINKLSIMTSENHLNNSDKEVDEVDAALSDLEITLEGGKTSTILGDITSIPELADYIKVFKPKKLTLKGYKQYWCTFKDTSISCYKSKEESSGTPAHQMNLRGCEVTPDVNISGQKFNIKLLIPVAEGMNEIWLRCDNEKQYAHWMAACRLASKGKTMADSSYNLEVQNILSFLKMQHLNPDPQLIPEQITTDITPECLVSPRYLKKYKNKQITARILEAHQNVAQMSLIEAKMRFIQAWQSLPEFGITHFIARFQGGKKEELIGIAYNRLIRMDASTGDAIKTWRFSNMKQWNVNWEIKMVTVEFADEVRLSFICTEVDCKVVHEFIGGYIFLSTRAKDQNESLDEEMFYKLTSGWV
His6-sumo-kindlin (UniProt Q96AC1), sequence (Q96AC1 whole entry): as above
β1 integrin cytoplasmic tail-GFP, sequence (P05556 752-798): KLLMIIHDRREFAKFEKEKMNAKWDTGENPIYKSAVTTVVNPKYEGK
phosphorylated Nephrin, sequence (O60500 23-1241): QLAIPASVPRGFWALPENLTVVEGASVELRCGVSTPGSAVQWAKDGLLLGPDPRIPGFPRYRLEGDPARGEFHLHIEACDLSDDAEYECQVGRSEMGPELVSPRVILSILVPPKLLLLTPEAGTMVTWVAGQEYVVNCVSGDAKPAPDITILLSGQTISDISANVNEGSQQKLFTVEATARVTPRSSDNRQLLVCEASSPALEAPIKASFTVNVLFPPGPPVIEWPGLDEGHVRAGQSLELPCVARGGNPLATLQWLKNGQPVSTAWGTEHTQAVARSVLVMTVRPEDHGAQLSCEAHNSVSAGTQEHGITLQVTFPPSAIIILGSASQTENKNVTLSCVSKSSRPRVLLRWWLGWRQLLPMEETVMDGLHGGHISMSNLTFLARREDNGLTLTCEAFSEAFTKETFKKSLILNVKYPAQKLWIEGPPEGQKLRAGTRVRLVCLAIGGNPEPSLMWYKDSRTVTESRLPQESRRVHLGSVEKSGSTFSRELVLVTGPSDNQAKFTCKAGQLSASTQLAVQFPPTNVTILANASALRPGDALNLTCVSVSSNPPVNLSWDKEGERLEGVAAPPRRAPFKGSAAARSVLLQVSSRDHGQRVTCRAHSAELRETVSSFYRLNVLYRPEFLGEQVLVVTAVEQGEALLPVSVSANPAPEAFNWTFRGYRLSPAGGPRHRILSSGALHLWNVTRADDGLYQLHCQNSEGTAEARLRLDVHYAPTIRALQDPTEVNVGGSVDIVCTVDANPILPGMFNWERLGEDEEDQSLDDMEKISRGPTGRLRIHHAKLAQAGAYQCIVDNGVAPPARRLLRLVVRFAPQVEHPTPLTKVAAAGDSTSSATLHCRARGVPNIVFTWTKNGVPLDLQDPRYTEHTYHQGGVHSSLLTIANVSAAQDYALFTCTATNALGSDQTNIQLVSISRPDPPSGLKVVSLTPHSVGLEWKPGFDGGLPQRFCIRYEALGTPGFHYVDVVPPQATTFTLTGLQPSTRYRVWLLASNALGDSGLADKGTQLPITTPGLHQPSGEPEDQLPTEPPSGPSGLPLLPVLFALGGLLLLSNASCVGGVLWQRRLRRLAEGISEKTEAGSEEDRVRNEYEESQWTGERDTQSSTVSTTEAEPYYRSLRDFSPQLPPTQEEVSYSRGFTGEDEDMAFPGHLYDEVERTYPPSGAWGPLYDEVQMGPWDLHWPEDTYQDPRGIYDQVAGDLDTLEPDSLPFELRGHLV
Paxillin, sequence (P49023 whole entry): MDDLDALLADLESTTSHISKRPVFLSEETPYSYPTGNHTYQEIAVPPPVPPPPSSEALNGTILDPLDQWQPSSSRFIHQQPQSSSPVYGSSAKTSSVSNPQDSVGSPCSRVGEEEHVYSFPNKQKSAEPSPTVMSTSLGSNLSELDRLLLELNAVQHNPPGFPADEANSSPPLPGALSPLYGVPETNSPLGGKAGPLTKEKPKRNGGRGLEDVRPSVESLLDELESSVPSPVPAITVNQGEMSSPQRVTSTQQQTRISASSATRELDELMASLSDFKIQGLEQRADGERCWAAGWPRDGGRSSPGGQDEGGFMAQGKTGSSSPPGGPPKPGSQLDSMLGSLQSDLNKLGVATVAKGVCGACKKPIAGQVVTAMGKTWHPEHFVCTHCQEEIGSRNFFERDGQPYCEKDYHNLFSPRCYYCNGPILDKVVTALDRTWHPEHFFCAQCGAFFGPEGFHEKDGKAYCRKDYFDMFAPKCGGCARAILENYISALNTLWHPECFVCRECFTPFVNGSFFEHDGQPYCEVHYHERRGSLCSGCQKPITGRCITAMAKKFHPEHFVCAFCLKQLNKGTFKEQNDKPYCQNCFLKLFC
Focal adhesion kinase (UniProt Q05397), sequence (Q05397 whole entry): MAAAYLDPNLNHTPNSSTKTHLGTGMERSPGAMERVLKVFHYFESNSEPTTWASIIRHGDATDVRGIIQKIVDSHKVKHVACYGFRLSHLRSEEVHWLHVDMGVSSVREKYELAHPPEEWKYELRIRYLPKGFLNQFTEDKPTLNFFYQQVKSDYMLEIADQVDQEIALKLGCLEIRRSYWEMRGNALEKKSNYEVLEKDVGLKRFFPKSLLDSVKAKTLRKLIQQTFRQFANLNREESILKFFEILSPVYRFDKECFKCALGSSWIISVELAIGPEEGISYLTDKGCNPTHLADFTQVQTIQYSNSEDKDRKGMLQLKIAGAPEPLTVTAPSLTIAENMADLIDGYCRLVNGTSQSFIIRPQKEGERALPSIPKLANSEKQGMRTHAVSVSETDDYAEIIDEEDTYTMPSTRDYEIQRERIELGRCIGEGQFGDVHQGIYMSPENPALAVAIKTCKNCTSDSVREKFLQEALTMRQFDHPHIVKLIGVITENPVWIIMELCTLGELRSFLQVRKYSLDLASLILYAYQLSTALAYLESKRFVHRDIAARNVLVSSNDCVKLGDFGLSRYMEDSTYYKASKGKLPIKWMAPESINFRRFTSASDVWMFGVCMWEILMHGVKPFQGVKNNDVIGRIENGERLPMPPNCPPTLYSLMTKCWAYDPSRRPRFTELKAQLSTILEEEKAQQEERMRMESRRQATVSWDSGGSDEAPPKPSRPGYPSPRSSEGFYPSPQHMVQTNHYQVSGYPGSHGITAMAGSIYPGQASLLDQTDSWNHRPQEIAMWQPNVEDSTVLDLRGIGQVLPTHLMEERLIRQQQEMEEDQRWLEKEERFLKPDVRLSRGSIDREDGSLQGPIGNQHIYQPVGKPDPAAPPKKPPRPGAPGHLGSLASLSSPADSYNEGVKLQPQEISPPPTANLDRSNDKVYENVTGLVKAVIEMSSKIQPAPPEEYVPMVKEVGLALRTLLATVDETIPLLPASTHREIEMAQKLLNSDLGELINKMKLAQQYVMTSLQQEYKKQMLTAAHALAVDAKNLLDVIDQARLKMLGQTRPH
Focal adhesion kinase (from UniProt Q05397 1-1052) (enzyme), sequence (Q05397 whole entry): as above
N-WASP, sequence (O00401 whole entry): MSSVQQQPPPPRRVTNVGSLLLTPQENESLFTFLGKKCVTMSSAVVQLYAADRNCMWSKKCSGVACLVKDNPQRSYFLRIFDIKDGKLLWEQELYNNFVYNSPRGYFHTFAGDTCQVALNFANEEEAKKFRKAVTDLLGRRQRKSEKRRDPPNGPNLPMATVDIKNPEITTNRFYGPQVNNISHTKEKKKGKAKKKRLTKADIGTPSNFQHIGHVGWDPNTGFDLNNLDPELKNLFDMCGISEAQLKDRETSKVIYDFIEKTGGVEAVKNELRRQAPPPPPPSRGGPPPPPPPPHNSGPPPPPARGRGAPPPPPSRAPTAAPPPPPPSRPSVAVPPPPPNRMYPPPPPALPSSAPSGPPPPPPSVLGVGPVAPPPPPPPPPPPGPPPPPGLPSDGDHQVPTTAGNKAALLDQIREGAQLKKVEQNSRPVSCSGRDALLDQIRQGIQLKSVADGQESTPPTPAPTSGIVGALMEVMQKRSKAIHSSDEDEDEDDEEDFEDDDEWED

For “His6-sumo-kindlin (from UniProt Q96AC1 1-680) (natural protein)”, the kindlin partition coefficient (PC) in droplets of 5 uM each phosphorylated Nephrin, Nck and N-WASP with 1 uM kindlin (10% Alexa546), lacking pCas with phosphorylated Nephrin, in the assay with N-WASP and with Nck was 1 each time.
In the assay with Focal adhesion kinase [1], “Focal adhesion kinase (from UniProt Q05397 1-1052) (enzyme)” showed a solution turbidity (absorbance at 350 nm) with increasing concentrations of FAK; concentration from which turbidity rises of 100 nM.
“Paxillin (from UniProt P49023 1-591) (natural protein)” displayed an FAK enrichment (partitioning) in droplets, 1 uM FAK with 1 uM paxillin against 1 uM FAK alone with Focal adhesion kinase [2] of 2 fold.
With “β1 integrin cytoplasmic tail-GFP (from UniProt P05556 752-798) (domain or fragment)”, the integrin-GFP partition coefficient (PC) in droplets of 1 uM each pCas, Nck, N-WASP, FAK, paxillin and β1 integrin tail with 1 uM kindlin (PC = 1.2 without kindlin) in the assay with His6-sumo-kindlin is 3.

Values taken from article PMC8791637.
